Source: US20230302100A1

Columns and labels:
adalimumab (Humira) = assay: cell-based or functional assay
denosumab (XGEVA) = assay: cell-based or functional assay

## pCART144 (IdeZ with N terminal methionine and histidine tag) (enzyme)
Adalimumab (Humira)
  IgG1 (adalimumab) cleavage, SDS-PAGE titration: enzyme concentration of equal cleavage: 4.6 ng/mL
Denosumab (XGEVA)
  IgG2 (denosumab) cleavage, SDS-PAGE titration: enzyme concentration giving a dominating F(ab')2 band: 3.3 µg/mL
  IgG2 (denosumab) cleavage, SDS-PAGE titration: enzyme concentration giving a single intense scIgG band: 0.12 µg/mL
